test system: C=CC(=O)SCCNC(=O)CCNC(=O)[C@H](O)C(C)(C)COP(=O)(O)OP(=O)(O)OC[C@H]1O[C@@H](n2cnc3c(N)ncnc32)[C@H](O)[C@@H]1OP(=O)(O)O; experiment: purified protein; conditions: apparent; kcat at 4.4 mM CO2, combined reduction and carboxylation
From the text: steady-state kinetics, Michaelis-Menten fit on PCSEN_ΔDH (propionyl-CoA synthase, reductase domain activity)

Point of comparison: “PCSEN_ΔDH (propionyl-CoA synthase, reductase domain activity) (Erythrobacter sp. NAP1; E1027Q)”, Km 0.014 ± 0.002 mM. Against it:
- PCSEN_ΔDH (propionyl-CoA synthase, reductase domain activity) (Erythrobacter sp. NAP1; D1302S/E1027Q) — 1.9-fold higher, 0.027 ± 0.003 mM
- PCSEN_ΔDH (propionyl-CoA synthase, reductase domain activity) (Erythrobacter sp. NAP1; D1302S/E1027Q/T1753M) — 1.9-fold higher, 0.026 ± 0.003 mM
- PCSEN_ΔDH (propionyl-CoA synthase, reductase domain activity) (Erythrobacter sp. NAP1; E1027Q/T1753M) — within 1.5-fold, 0.0197 ± 0.0012 mM

Point of comparison: “PCSEN_ΔDH (propionyl-CoA synthase, reductase domain activity) (Erythrobacter sp. NAP1; E1027Q)”, kcat 7.4 ± 1.0 s⁻¹. Against it:
- PCSEN_ΔDH (propionyl-CoA synthase, reductase domain activity) (Erythrobacter sp. NAP1; D1302S/E1027Q) — 4.2-fold lower, 1.77 ± 0.09 s⁻¹
- PCSEN_ΔDH (propionyl-CoA synthase, reductase domain activity) (Erythrobacter sp. NAP1; D1302S/E1027Q/T1753M) — 16-fold lower, 0.46 ± 0.03 s⁻¹
- PCSEN_ΔDH (propionyl-CoA synthase, reductase domain activity) (Erythrobacter sp. NAP1; E1027Q/T1753M) — within error, 6.5 ± 0.6 s⁻¹

From article PMC6650136, “Awakening the Sleeping Carboxylase Function of Enzymes: Engineering the Natural CO2-Binding Potential of Reductases” (Journal of the American Chemical Society, 2019)
